Assay results from patent US6770446B1, “Cell systems having specific interaction of peptide binding pairs” (Wyeth, priority 1994, dated 2004).
Where “and” joins values, the source holds several entries; their conditions need not be identical. Identical values can stand only once.

How the values were obtained:
[1] = molecular target: RGS-Z fused to the Gal4 activation domain (RGS-Z-pACT2) (yeast; human) (UniProt O76081); assay: cell-based or functional assay
KDR = KDR (Homo sapiens, UniProt P35968)
KDR, sequence (P35968 20-764 limits assumed): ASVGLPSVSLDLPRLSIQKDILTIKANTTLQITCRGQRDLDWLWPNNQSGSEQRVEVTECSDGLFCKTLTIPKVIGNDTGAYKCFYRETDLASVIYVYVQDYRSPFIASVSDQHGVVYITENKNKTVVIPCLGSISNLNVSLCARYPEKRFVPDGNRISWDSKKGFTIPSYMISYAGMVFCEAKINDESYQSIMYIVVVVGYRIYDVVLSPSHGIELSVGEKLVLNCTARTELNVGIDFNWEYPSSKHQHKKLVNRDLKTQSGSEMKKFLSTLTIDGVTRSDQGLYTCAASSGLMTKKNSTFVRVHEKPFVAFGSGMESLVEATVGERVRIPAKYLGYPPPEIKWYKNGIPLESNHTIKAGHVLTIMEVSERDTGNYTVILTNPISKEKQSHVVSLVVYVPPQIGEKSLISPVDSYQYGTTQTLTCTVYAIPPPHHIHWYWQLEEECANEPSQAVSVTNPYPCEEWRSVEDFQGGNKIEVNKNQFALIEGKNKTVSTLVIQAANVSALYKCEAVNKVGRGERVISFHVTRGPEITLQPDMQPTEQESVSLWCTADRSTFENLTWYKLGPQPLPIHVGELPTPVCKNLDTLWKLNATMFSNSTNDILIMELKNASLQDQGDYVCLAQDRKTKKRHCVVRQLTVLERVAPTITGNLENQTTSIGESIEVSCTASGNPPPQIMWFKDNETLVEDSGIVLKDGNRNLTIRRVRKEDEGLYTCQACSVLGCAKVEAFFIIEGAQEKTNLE
KDR, sequence (P35968 20-764 limits assumed): as above

[2] = molecular target: T1, extracellular domain of rat growth hormone receptor (GHR, amino acids 1-247) fused to the Gal4 DNA binding … (yeast; rat, UniProt P04386 1-147; P16310 19-265); assay: yeast two-hybrid, HIS3 growth on selective medium (strain CY722)
T1 construct: Expressed inside yeast (two-hybrid); also called GHR fusion; GHR-GAL4 fusion; not shown: polylinker residues of pAS2; not described

[3] = molecular target: T2, GH and GHR fusion proteins (Rattus norvegicus, UniProt P16310); assay: Yeast two-hybrid competition assay: free peptide co-expressed with GH and GHR fusion proteins, growth on selective medium; format: cell-based; design: key to Growth: +: scored for cell growth, indicated by a plus; details: for Effect of co-expressed free peptide on GH-GHR-dependent cell growth on selective medium: free peptide expressed from pCUP in a strain with GH and GHR fusions
T2 construct: encoding amino acids 1-247 of the rat GHR (Baumbach et al., 1989); expressed in transfected cells; host or cells: Saccharomyces cerevisiae CY770 (URA- derivative of Y190)
T2 sequence (P16310 19-265): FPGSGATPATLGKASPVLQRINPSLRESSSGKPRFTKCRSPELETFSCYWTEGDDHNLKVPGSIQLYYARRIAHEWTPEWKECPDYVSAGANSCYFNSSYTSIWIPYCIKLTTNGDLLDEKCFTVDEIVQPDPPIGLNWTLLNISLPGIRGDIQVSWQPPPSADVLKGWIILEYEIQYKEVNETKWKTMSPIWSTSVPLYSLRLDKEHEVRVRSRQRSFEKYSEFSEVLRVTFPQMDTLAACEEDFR

[4] = molecular target: T1, extracellular domain of rat growth …; assay: in vivo competition in yeast two-hybrid, free GH from pCUP (strain CY781)
[5] = molecular target: T3, PRL and PRLR fusion proteins (Sus scrofa, UniProt Q6JTA8, M232L/S231T); assay: Yeast two-hybrid competition assay: free peptide co-expressed with PRL and PRLR fusion proteins, growth on selective medium; format: cell-based, porcine; details: free peptide expressed from pCUP in a strain with PRL and PRLR fusions
T3 construct: flank the extracellular domain of the PRLR, encoding amino acids 1-229; expressed in transfected cells; host or cells: Saccharomyces cerevisiae (URA- derivative of Y190; strains CY786/CY787)
T3 sequence (Q6JTA8 with tags, fused parts or gaps): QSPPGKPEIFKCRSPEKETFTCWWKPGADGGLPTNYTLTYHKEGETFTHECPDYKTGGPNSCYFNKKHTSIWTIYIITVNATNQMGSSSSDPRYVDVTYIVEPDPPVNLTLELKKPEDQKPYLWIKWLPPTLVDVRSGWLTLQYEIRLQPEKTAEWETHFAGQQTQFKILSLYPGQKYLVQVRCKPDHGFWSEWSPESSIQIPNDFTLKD
From the text: To expand and validate this technology, a similar system was developed using the peptide hormone prolactin (PRL) and its receptor. Prolactin is structurally related to GH and the prolactin receptor (PRLR) is also a member of the cytokine receptor superfamily. […] Mature porcine PRL is generated as a fusion to the GAL4 activation domain. Oligonucleotides are designed to pig PRL (obtained from GenBank; […] No. X14068), and used to generate the mature pig PRL protein hormone from a pig pituitary lambda gt11 library, using standard PCR methods. A 31 base 5' oligonucleotide includes an EcoRI site ([NT] ID NO: 7) and corresponds to sequences encoding amino acids 1-7. A 30 base 3' oligonucleotide contains an EcoRI site ([NT] ID NO: 8) and corresponds to a region of cDNA 3' to the endogenous termination codon. A 600 bp fragment is obtained, ligated into vector pCR 11, and confirmed by restriction enzyme digest and sequence analysis. The PRL cDNA is cloned into pACT-II via the EcoRI site. The extracellular domain of the porcine PRL receptor (PRLR) is generated as a fusion to GAL4 DNA binding domain. Oligonucleotides are designed based on sequence of the mouse PRLR (Davis and Linzer, 1989) A 31 base 5' oligonucleotide contains a […] ID NO: 9) while the 31 base 3' oligonucleotide contains a termination codon followed by a […] ID NO: 10). […]

[6] = molecular target: T4, KChIP1 fused to the Gal4 activation domain (hKChIP1-pACT2) (yeast; human, UniProt Q9NZI2-2 1-216, limits assumed); assay: cell-based or functional assay
T4 sequence (looked up): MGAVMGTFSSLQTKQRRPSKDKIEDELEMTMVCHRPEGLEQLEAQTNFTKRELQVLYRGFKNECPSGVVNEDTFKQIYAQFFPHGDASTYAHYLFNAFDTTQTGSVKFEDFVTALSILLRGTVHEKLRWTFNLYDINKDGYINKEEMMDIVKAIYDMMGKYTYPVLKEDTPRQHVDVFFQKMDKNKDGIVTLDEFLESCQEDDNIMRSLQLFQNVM

constitutively active G-alphaZ Q205L fused to the Gal4 DNA binding domain (Q205L/GaZ-pGBKT7) (from UniProt P04386 1-147; P19086 1-355)
firefly luciferase activity, ybn66L in a 75:25 mix with ybn77L (OD 0.25 and 0.15) (luminescence units) [1]: 950000
increase in Renilla luciferase activity, strain ybn70L [1]: 40 fold
induction of luciferase activity, interaction strain (ybn66L) against control strains [1]: 5 fold and 10 fold

VEGF
Growth on selective media of strain expressing two KDR receptor fusion proteins plus free ligand (KDR): substantial growth on selective media

B1: porcine growth hormone (GH) fused to the Gal4 activation domain (GH in pACT-II) (ligand, UniProt P01248 27-216, looked up, not shown: large carriers; small tags and cut ends)
chain: FPAMPLSSLFANAVLRAQHLHQLAADTYKEFERAYIPEGQRYSIQNAQAAFCFSETIPAPTGKDEAQQRSDVELLRFSLLLIQSWLGPVQFLSRVFTNSLVFGTSDRVYEKLKDLEEGIQALMRELEDGSPRAGQILKQTYDKFDTNLRSDDALLKNYGLLSCFKKDLHKAETYLRVMKCRRFVESSCAF
notes: mature; Expressed inside yeast (two-hybrid); also called GH-Gal4 fusion protein; GH fusion
binding result [2]: binds

B2: GH: mature porcine growth hormone expressed as free ligand from pCUP plasmid (protein, UniProt P01248 27-216, looked up)
Somatotropin: FPAMPLSSLFANAVLRAQHLHQLAADTYKEFERAYIPEGQRYSIQNAQAAFCFSETIPAPTGKDEAQQRSDVELLRFSLLLIQSWLGPVQFLSRVFTNSLVFGTSDRVYEKLKDLEEGIQALMRELEDGSPRAGQILKQTYDKFDTNLRSDDALLKNYGLLSCFKKDLHKAETYLRVMKCRRFVESSCAF
Effect of co-expressed free peptide on GH-GHR-dependent cell growth on selective medium [3]: block GH-GHR-dependent cell growth on selective medium

B3: free porcine growth hormone expressed from pCUP (GH-pCUP) (ligand, UniProt P01248 27-216, looked up)
chain: FPAMPLSSLFANAVLRAQHLHQLAADTYKEFERAYIPEGQRYSIQNAQAAFCFSETIPAPTGKDEAQQRSDVELLRFSLLLIQSWLGPVQFLSRVFTNSLVFGTSDRVYEKLKDLEEGIQALMRELEDGSPRAGQILKQTYDKFDTNLRSDDALLKNYGLLSCFKKDLHKAETYLRVMKCRRFVESSCAF
notes: mature; Non-fusion GH; also called free GH; free ligand
binding result [4]: binds

B4: PRL: mature porcine prolactin expressed as free peptide from pCUP plasmid (protein)
chain: LPICPSGAVNCQVSLRDLFDRAVILSHYIHNLSSEMFNEFDKRYAQGRGFITKAINSCHTSSLSTPEDKEQAQQIHHEVLLNLILRVLRSWNDPLYHLVTEVRGMQEAPDAILSRAIEIEEQNKRLLEGMEKIVGQVHPGIKENEVYSVWSGLPSLQMADEDTRLFAFYNLLHCLRRDSHKIDNYLKLLKCRIIYDSNC
modifications: left off: large carriers; small tags and cut ends
notes: mature porcine prolactin expressed as free peptide from pCUP plasmid
Effect of co-expressed free peptide on GH-GHR-dependent cell growth on selective medium [3]: grows on selective medium
Growth ([3]; strain with GH and GHR fusions plus free peptide expressed from pCUP, selective medium, 3 to 5 days at 30 C): +
Effect of co-expressed free peptide on PRL-PRLR-dependent cell growth on selective medium [5]: growth is abrogated

B5: N-terminus of the potassium channel 4.3 (hKv4.3N) fused to the Gal4 DNA binding domain (hKv4.3N-pGBT9) (other, yeast;human, UniProt P04386 1-147, looked up)
chain: MKLLSSIEQACDICRLKKLKCSKEKPKCAKCLKNNWECRYSPKTKRSPLTRAHLTEVESRLERLEQLFLLIFPREDLDMILKMDSLQDIKALLTGLFVQDNVNKDAVTDRLASVETDMPLTLRQHRISATSSSEESSNKGQRQLTVSMAAGVAAWLPFARAAAIGWMPVANCPMPLAPADKNKRQDELIVLNVSGRRFQTWRTTLERYPDTLLGSTEKEFFFNEDTKEYFFDRDPEVFRCVLNFYRTGKLHYPRYECISAYDDELAFYGILPEIIGDCCYEEYKDRKRENAERLMDDNDSENNQESMPSLSFRQTMWRAFENPHTST
increase in Renilla luciferase activity, strain ybn77L [6]: 25 fold
increase in luciferase activity (Gal1/10-luciferase reporter), both fusions against one fusion plus empty vector [6]: 30 fold
increase in luciferase activity (low copy CEN Gal-luciferase reporter Kp132), test strain against negative control strain [6]: 100 fold
